Holding throughout (experiment): cell-based or functional assay
The target of one experiment is T1, Caspase-2 (UniProt P42575 170-452, limits assumed).
T1 sequence (looked up): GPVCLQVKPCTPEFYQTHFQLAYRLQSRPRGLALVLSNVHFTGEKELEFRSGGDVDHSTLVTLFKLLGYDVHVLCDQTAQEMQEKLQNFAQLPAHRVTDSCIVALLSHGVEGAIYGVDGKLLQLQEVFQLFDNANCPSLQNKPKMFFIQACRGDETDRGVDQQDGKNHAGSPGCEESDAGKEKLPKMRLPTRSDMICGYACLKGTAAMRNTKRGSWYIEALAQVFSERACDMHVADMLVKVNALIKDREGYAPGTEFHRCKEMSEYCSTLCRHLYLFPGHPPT

Another experiment addresses T2, Caspase-6 (UniProt P55212 24-293, limits assumed).
T2 sequence (looked up): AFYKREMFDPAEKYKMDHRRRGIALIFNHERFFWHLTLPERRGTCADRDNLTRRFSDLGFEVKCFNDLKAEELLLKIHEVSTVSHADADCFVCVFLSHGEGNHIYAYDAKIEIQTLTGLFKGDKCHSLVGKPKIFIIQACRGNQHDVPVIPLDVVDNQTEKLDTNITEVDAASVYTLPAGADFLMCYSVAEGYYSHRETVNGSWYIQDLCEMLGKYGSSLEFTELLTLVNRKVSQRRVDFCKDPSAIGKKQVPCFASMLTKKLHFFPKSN

The next experiment addresses Caspase-8 (UniProt Q14790 217-479).
The next experiment has as its target T3, Caspase-9 (UniProt P55211 1-416, limits assumed).
T3 sequence (looked up): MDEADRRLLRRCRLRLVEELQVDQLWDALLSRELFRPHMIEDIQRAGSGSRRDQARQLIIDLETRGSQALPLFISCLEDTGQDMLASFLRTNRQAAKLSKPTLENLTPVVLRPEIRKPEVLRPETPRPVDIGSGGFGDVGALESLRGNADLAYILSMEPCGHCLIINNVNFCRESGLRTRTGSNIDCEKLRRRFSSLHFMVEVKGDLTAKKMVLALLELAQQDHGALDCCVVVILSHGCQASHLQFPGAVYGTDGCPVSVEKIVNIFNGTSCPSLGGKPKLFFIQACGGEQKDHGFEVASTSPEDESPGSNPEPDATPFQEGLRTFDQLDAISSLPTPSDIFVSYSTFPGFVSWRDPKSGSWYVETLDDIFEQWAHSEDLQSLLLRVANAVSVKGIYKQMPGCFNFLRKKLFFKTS

In another experiment the target is T4, Caspase-10 (UniProt Q92851 220-521, limits assumed).
T4 sequence (looked up): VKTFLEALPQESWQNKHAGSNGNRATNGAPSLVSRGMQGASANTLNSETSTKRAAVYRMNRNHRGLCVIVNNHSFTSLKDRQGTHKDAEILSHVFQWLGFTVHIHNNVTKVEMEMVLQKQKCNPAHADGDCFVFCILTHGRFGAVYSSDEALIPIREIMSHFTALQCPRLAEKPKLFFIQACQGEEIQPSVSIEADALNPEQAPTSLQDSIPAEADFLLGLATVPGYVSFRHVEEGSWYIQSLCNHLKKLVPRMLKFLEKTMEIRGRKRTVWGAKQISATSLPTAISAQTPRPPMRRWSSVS

The target of another experiment is T5, Caspase-7 (UniProt P55210 24-303).
T5 sequence (looked up): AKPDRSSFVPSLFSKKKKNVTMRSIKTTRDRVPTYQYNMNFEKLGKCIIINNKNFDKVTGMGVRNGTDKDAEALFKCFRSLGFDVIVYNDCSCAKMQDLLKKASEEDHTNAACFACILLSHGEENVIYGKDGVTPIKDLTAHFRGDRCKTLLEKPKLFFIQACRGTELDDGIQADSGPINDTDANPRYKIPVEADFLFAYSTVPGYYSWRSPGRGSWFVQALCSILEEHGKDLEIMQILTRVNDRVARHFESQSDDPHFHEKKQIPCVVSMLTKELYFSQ

Experiment [1] addresses T6, Caspase-3 (UniProt P42574 29-277).
T6 sequence (looked up): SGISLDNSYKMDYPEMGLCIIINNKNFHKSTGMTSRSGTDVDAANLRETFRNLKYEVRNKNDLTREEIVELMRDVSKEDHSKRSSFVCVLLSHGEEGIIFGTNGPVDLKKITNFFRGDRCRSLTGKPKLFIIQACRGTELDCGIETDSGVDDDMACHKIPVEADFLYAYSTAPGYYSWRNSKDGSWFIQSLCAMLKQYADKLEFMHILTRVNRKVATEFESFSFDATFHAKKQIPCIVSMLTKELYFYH

The target of experiment [2] is T6, Caspase-3. The source holds these as a separate data set.

The results in this text go back to patent publication US20050256058A1 (GEORGIA TECH RESEARCH, published 2005).

Numbered stars: 1 amine (or outer) side, 2 acyl side, 3 side chain; on linkers, the order of the positions; unused ones are H or OH. Square brackets hold non-standard residues; d marks the D form. * marks the point of attachment. CH═CH‑CON(CH2Ph)2 = O=C(/C=C/*)N(Cc1ccccc1)Cc1ccccc1; CH═CH‑CON(CH3)CH2CH2Ph = CN(CCc1ccccc1)C(=O)/C=C/*; AAsp = aza-Asp, O=C(N(CC(=O)[*:3])N[*:1])[*:2]; CH═CH‑CON(CH3)CH2Ph = CN(Cc1ccccc1)C(=O)/C=C/*; Cbz = O=C(OCc1ccccc1)*

Caspase-8, sequence (Q14790 217-479 limits assumed): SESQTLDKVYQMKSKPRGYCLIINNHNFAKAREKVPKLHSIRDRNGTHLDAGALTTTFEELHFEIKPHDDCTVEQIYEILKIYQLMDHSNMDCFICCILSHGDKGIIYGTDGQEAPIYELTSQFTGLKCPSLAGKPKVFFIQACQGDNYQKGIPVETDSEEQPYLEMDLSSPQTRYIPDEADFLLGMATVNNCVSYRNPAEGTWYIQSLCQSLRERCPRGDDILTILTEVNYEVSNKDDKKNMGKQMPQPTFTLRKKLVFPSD

Consider Cbz-LET[AAsp]-{CH═CH‑CON(CH3)CH2‑1‑Napth} [Cbz-Leu-Glu-Thr-AAsp-CH═CH-CON(CH3)CH2-1-Napth], for which the k2 in the experiment with Caspase-2 amounted to 290 M⁻¹ s⁻¹; with Caspase-6, 21700 M⁻¹ s⁻¹; with Caspase-8, 179000 M⁻¹ s⁻¹; with Caspase-9, 5030 M⁻¹ s⁻¹; in the experiment with Caspase-10, 13600 M⁻¹ s⁻¹; in the experiment with Caspase-7, 1100 M⁻¹ s⁻¹. The molecule also had a k2 with Caspase-3 [1] of 11200 M⁻¹ s⁻¹.

B1: Cbz-Asp-Glu-Val-AAsp-CH═CH-CON(CH2Ph)2 (peptide)
peptide: Cbz-DEV[AAsp]-{CH═CH‑CON(CH2Ph)2}
SMILES: CC(C)[C@H](NC(=O)[C@H](CCC(=O)O)NC(=O)[C@H](CC(=O)O)NC(=O)OCc1ccccc1)C(=O)NN(CC(=O)O)C(=O)/C=C/C(=O)N(Cc1ccccc1)Cc1ccccc1
As to B1, the “fold more potent inhibition than of caspase-6” value in the experiment with Caspase-3 [2] was found to be 588 fold. In addition, the “fold more potent inhibition than of caspase-8” value with Caspase-3 [2] came to 348 fold. Besides, the k2 with Caspase-2 worked out at 110 M⁻¹ s⁻¹; with Caspase-6 it was 5100 M⁻¹ s⁻¹; with Caspase-8, 8600 M⁻¹ s⁻¹; with Caspase-9 it was 450 M⁻¹ s⁻¹; in the experiment with Caspase-10, 6300 M⁻¹ s⁻¹; in the experiment with Caspase-7, 359000 M⁻¹ s⁻¹. In addition, the k2 with Caspase-3 [1] is 3e+06 M⁻¹ s⁻¹.

B2: Cbz-Leu-Glu-Thr-AAsp-CH═CH-CON(CH2Ph)2 (peptide)
peptide: Cbz-LET[AAsp]-{CH═CH‑CON(CH2Ph)2}
SMILES: CC(C)C[C@H](NC(=O)OCc1ccccc1)C(=O)N[C@@H](CCC(=O)O)C(=O)N[C@H](C(=O)NN(CC(=O)O)C(=O)/C=C/C(=O)N(Cc1ccccc1)Cc1ccccc1)[C@@H](C)O
Turning to B2, the k2 came out at 110 M⁻¹ s⁻¹ with Caspase-2; 14100 M⁻¹ s⁻¹ with Caspase-6; 129000 M⁻¹ s⁻¹ with Caspase-8; 1100 M⁻¹ s⁻¹ with Caspase-9; 8080 M⁻¹ s⁻¹ in the experiment with Caspase-10; 760 M⁻¹ s⁻¹ with Caspase-7. In the experiment with Caspase-3 [1], this molecule gave a k2 of 8630 M⁻¹ s⁻¹.

B3: Cbz-Leu-Glu-Thr-AAsp-CH═CH-CON(CH3)CH2CH2Ph (peptide)
peptide: Cbz-LET[AAsp]-{CH═CH‑CON(CH3)CH2CH2Ph}
SMILES: CC(C)C[C@H](NC(=O)OCc1ccccc1)C(=O)N[C@@H](CCC(=O)O)C(=O)N[C@H](C(=O)NN(CC(=O)O)C(=O)/C=C/C(=O)N(C)CCc1ccccc1)[C@@H](C)O
Consider B3, for which the k2 amounted to 50 M⁻¹ s⁻¹ with Caspase-2; 2550 M⁻¹ s⁻¹ with Caspase-6; 65300 M⁻¹ s⁻¹ with Caspase-8; 960 M⁻¹ s⁻¹ with Caspase-9; 6190 M⁻¹ s⁻¹ with Caspase-10; 290 M⁻¹ s⁻¹ with Caspase-7. In addition, the k2 with Caspase-3 [1] is 2620 M⁻¹ s⁻¹.
Consider Cbz-LET[AAsp]-{CH═CH‑CO‑tetrahydroquinoline} [Cbz-Leu-Glu-Thr-AAsp-CH═CH-CON-tetrahydroquinoline], for which the k2 is 92 M⁻¹ s⁻¹ in the experiment with Caspase-2; 13000 M⁻¹ s⁻¹ with Caspase-6; 216000 M⁻¹ s⁻¹ with Caspase-8; 1660 M⁻¹ s⁻¹ with Caspase-9; 9000 M⁻¹ s⁻¹ with Caspase-10; 540 M⁻¹ s⁻¹ in the experiment with Caspase-7. This molecule also had a k2 with Caspase-3 [1] of 12100 M⁻¹ s⁻¹.

B4: Cbz-Leu-Glu-Thr-AAsp-CH═CH-CON(CH3)CH2Ph (peptide)
peptide: Cbz-LET[AAsp]-{CH═CH‑CON(CH3)CH2Ph}
SMILES: CC(C)C[C@H](NC(=O)OCc1ccccc1)C(=O)N[C@@H](CCC(=O)O)C(=O)N[C@H](C(=O)NN(CC(=O)O)C(=O)/C=C/C(=O)N(C)Cc1ccccc1)[C@@H](C)O
Turning to B4, the k2 came to 140 M⁻¹ s⁻¹ with Caspase-2; 10800 M⁻¹ s⁻¹ with Caspase-6; 169000 M⁻¹ s⁻¹ in the experiment with Caspase-8; 4320 M⁻¹ s⁻¹ in the experiment with Caspase-9; 8430 M⁻¹ s⁻¹ in the experiment with Caspase-10; 520 M⁻¹ s⁻¹ in the experiment with Caspase-7. Further, the k2 with Caspase-3 [1] came to 6000 M⁻¹ s⁻¹.
On to Cbz-DEV[AAsp]-{CH═CH‑CONHCH2CH2Ph} [Cbz-Asp-Glu-Val-AAsp-CH═CH-CONHCH2CH2Ph], for which the k2 in the experiment with Caspase-2 stood at 120 M⁻¹ s⁻¹; with Caspase-6 it was 3470 M⁻¹ s⁻¹; with Caspase-8, 129000 M⁻¹ s⁻¹; with Caspase-9, 655 M⁻¹ s⁻¹; with Caspase-10, 31400 M⁻¹ s⁻¹; with Caspase-7, 267000 M⁻¹ s⁻¹. In the experiment with Caspase-3 [1], this molecule displayed a k2 of 1.95e+06 M⁻¹ s⁻¹.
